# Source: paper PMC2606909 (Molecular pharmacology, 2008)
# Target: purified bovine arrestin3 (bovine, UniProt P32120 1-420)
# Assay: pull-down
# purified bovine arrestin3, sequence (P32120 whole entry): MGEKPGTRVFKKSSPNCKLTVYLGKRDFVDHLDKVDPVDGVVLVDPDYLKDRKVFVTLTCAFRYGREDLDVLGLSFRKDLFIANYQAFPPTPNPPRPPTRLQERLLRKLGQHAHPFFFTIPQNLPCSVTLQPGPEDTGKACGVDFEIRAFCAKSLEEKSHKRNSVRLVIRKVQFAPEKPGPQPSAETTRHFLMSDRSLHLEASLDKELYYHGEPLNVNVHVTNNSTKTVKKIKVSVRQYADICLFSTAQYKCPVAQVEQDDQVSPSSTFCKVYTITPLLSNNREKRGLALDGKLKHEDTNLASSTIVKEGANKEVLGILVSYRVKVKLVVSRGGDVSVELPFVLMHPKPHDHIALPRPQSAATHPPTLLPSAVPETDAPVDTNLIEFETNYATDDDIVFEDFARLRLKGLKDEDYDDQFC
row,Kd [nM],Binder
1,1100,"SIDRYTAVVMPVHYQHGTGQSSCRRVA (domain or fragment, rat, UniProt P19020 125-151, looked up) [GST-D3-IC2]"
2,242,"SIDRYTAVAMPMLYNTRYSSKRRVT (domain or fragment, rat, UniProt P61169 129-153, looked up) [GST-D2-IC2]"
